Here are results for five molecules from publication PMC8764033 (2022).

Several values for one entry are separate records, joined by “and”; a condition that tells them apart may be missing. Equal values may be shown once. Where no end group is shown, it is not given here. Cy5 = cyanine-5 fluorescent label

Assay [1] addresses T1, WD40 domain of Cdh1 from Saccharomyces cerevisiae (aa 241–550), for anisotropy (S. cerevisiae, UniProt P53197 241-550).
T1 chain: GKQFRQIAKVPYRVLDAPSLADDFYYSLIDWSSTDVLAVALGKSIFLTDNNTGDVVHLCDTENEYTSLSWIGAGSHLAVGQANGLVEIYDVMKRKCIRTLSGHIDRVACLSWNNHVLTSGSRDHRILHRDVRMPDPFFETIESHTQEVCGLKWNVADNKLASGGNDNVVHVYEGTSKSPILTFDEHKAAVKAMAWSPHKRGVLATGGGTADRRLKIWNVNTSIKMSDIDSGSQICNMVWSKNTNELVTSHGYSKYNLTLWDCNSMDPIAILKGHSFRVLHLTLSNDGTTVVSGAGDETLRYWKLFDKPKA
The experiment in a line: FP; + unlabeled Hsl1 KEN peptide (100 uM).

The target in assay [2] is T2, WD40 domain of human Cdc20 (aa 162–484), for anisotropy (human, UniProt Q12834 162-484).
T2 chain: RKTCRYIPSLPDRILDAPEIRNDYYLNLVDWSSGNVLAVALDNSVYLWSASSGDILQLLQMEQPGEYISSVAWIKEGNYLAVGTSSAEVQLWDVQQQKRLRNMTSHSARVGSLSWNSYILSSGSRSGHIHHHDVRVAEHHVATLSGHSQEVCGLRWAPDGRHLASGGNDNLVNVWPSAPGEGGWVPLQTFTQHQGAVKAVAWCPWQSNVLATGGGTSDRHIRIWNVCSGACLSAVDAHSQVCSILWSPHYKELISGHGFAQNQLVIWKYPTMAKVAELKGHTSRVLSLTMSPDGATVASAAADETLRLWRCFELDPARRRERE
The experiment in a line: FP.

The target of assay [3] is T1, WD40 domain of Cdh1 from Saccharomyces …. Briefly: FP.
Assay [4] has the same target. The experiment in a line: FP; + unlabeled Hsl1 KEN mutant peptide (100 uM).
For assay [5] the target is unchanged. The experiment in a line: FP; + unlabeled Hsl1 D box mutant peptide (100 uM).
Assay [6] shares this target. The experiment in a line: FP; + unlabeled Hsl1 D box peptide (100 uM).

Regarding EQKPKRAALSDITNSFNKMNK-Cy5 [Cy5-labeled Hsl1 D box peptide], the Kd was 1100 nM and 1200 nM in assay [1]; 2500 nM in assay [2]; 2.9 µM in assay [3]; 2900 nM in assay [4].

AQQQGRLPLAAKDNNRSKSFIK-Cy5 [Cy5-labeled ySecurin D box peptide] registered a Kd in assay [3] of more than 30.6 µM.

For QDSKPRRALTDVPVNNNPLSQK-Cy5 [Cy5-labeled Clb5 D box peptide], the Kd in assay [3] was more than 30.6 µM.

Take GVSTNKENEGPEYPTKIEK-Cy5 [Cy5-labeled Hsl1 KEN peptide]: the Kd in assay [5] is 16 µM and 11 µM; in assay [3], 22 µM; in assay [6] it was 3.4 µM.

As to EQKPKAAAASDITASFNKMNK-Cy5 [Cy5-labeled Hsl1 D box mutant peptide], the Kd in assay [3] was more than 30.6 µM.

The Kd is the equilibrium constant for the complex coming apart.
